For the assay, the target named is T1, VP2 from Rotavirus A WA strain (Rotavirus A WA strain, UniProt P11231 1-890).
T1 construct: Expressed in N. benthamiana from construct 1710 and purified as part of rotavirus-like particles; also called RVA(WA) VP2; VP2(opt)
T1 sequence: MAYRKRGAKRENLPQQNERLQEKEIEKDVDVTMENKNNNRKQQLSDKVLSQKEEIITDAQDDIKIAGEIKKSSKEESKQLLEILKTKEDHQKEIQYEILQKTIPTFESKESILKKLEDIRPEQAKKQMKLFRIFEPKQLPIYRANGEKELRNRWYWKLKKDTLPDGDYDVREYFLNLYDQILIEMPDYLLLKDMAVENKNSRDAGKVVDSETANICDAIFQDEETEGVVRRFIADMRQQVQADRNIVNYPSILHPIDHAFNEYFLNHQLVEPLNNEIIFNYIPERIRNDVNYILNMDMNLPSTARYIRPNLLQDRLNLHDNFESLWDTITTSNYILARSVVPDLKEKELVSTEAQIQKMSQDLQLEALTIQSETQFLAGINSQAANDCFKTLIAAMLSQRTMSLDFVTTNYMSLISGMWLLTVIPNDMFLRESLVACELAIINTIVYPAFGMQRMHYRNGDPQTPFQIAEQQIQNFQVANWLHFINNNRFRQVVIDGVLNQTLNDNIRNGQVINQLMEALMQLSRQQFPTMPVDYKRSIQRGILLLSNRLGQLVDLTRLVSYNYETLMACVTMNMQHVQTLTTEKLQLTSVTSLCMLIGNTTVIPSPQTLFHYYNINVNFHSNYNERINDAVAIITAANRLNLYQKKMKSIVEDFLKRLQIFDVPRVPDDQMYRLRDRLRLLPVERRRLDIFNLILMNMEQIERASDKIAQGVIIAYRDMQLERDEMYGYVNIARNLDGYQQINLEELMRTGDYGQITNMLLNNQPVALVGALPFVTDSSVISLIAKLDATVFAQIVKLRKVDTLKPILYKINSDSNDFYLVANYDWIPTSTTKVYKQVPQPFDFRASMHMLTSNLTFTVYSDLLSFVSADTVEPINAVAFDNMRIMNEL
Kind of assay: co-expression in N. benthamiana, iodixanol gradient, cryo-electron microscopy.

B1: VP6 from Rotavirus A WA strain (other)
chain: MEVLYSLSKTLKDARDKIVEGTLYSNVSDLIQQFNQMIVTMNGNDFQTGGIGNLPVRNWTFDFGLLGTTLLNLDANYVENARTIIEYFIDFIDNVCMDEMARESQRNGVAPQSEALRKLAGIKFKRINFDNSSEYIENWNLQNRRQRTGFVFHKPNIFPYSASFTLNRSQPMHDNLMGTMWLNAGSEIQVAGFDYSCAINAPANIQQFEHIVQLRRALTTATITLLPDAERFSFPRVINSADGATTWFFNPVILRPNNVEVEFLLNGQIINTYQARFGTIIARNFDAIRLLFQLMRPPNMTPAVNALFPQAQPFQHHATVGLTLRIESAVCESVLADANETLLANVTAVRQEYAIPVGPVFPPGMNWTELITNYSPSREDNLQRVFTVASIRSMLIK
notes: Expressed in N. benthamiana from construct 1713 and purified as part of rotavirus-like particles; also called RVA(WA) VP6; VP6(opt)
With B1, the binding result is “binds”.

The values are drawn from US20150216961A1 (MEDICAGO, published 2015).
